Results on nine substances are retold here after US7635557B2 (MND Diagnostic Ltd., priority 2003, dated 2009).

Ends that are not written are not given here.

The term Km denotes the concentration of substrate that gives half-maximal velocity.

T1 sequence (P03303 1538-1719): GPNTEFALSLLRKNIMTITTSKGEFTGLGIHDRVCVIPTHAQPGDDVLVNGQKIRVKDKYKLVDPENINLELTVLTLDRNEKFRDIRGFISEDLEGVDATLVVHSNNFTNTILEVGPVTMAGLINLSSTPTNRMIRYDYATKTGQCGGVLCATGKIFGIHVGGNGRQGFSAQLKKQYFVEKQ

One experiment addresses T1, Rhinovirus HRV14 3C protease (Human rhinovirus 14, UniProt P03303).
T1 construct: the human rhinovirus 14 3C proteinase, cloned and expressed in E. coli; host or cells: E. coli
The format is biochemical.
Details: not given
As for RPVVVQGPN, the “best substrate chosen based on the reaction rates” value is recorded as “best peptide”.

In a further experiment the target is T2, Human Rhinovirus serotype 1A 3C Protease (Human rhinovirus 1A, UniProt P23008).
T2 construct: is used to clone the 3C Protease into the expression vector pET16-b; made in house; host or cells: E. coli BL21-DE3-pLys-S
T2 sequence (P23008 1515-1697 limits assumed): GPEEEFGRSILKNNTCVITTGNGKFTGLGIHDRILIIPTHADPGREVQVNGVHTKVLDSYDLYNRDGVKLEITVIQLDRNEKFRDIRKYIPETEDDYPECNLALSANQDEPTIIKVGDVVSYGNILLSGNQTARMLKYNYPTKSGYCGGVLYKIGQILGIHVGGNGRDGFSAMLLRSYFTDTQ
The class given is biochemical.
Details: not given
Turning to “MOC-Arg-Ala-Glu-Leu-Gln-Gly-Pro-Tyr-Asp-Lys-DNP-NH2 (RAELQGPYDK; not fully specified; MOC fluorochrome, DNP quencher, C-terminal amide; Human rhinovirus 1A; MOC; fluorochrome) [dimodified decapeptide substrate (7-methoxy coumarin-4-acetic acid fluorochrome and dinitrophenol quencher)]”, the Km is 16.8 µM.

In the next experiment the target is T1, Rhinovirus HRV14 3C protease. The settings on record: cited from earlier work.
With DSLETLFQGPVYK [I], the Hydrolysis rate is given as 355 and the “Relative Hydrolysis rate” value is on record as 1.00. In the case of EAIAEEQGLSDYIT [II], the Hydrolysis rate was 8 and the “Relative Hydrolysis rate” value is listed as 0.024. Consider KLFAQTQGPYSGNP [VI], for which the Hydrolysis rate is 147 and the “Relative Hydrolysis rate” value is on record as 0.44. Regarding KQYFVEKQGQVIAR [VIII], the Hydrolysis rate is 1 and the “Relative Hydrolysis rate” value is listed as 0.003. Consider SQTVALTEGLGDELEEY, for which the Hydrolysis rate is recorded as 0 and the “Relative Hydrolysis rate” value was 0.0005.

As to VPYIERQANDGWFRK [III], the Hydrolysis rate was 0 and the “Relative Hydrolysis rate” value is recorded as 0.0005.

As for YRPVVVQGPNTEF [VII], the Hydrolysis rate is recorded as 37 and the “Relative Hydrolysis rate” value is reported as 0.11.
